Measured values: patent US20200360435A1 (published 2020)

B1: TCR7-2 (TCR, V domains shown)
Valpha: KQEVTQIPAALSVPEGENLVLNCSFTDSAIYNLQWFRQDPGKGLTSLLLIQSSQREQTSGRLNASLDKSSGRSTLYIAASQPGDSATYLCAVSRGNARLMFGDGTQLVVKP
Vbeta: DTGVSQDPRHKITKRGQNVTFRCDPISEHNRLYWYRQTLGQGPEFLTYFQNEAQLEKSRLLSDRFSAERPKGSFSTLEIQRTEQGDSAMYLCASAEDRGEKLFFGSGTQLSVL
B2: TCR7-3 (TCR, V domains shown)
Valpha: KQEVTQIPAALSVPEGENLVLNCSFTDSAIYNLQWFRQDPGKGLTSLLLIQSSQREQTSGRLNASLDKSSGRSTLYIAASQPGDSATYLCAVSRGNNRLAFGKGNQVVVIP
Vbeta: DTGVSQDPRHKITKRGQNVTFRCDPISEHNRLYWYRQTLGQGPEFLTYFQNEAQLEKSRLLSDRFSAERPKGSFSTLEIQRTEQGDSAMYLCASSPDRADTQYFGPGTRLTVL

Biological target: HTLV-1 Tax peptide on HLA-A*24:02 (human)
Experiment: multimer staining

Binder	binding result
B1	recognises
B2	recognises
